Data taken from patent US20250382602.
Substitutions are numbered along the chain they refer to.

What was measured:
Settings in all cases: nanopore translocation, FLO-MIN112; background mutations not given
[1] = biological target: T1, Dda 1993 351I 351I (Enterobacteria phage T4) (UniProt P32270)
T1 sequence: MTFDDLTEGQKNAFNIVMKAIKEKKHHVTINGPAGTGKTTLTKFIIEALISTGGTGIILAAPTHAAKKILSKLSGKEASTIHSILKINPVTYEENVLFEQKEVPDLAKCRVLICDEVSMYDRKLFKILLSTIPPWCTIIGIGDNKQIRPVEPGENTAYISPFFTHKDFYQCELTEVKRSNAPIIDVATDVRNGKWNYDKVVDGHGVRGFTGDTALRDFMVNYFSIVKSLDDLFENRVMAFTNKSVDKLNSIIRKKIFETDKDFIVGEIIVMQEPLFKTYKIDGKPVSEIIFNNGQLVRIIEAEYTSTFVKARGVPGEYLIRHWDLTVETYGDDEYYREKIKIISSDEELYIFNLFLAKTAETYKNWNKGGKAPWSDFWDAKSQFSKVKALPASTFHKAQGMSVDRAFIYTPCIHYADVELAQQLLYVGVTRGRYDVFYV

[2] = biological target: T2, Dda 1993 K358F K358F (Enterobacteria phage T4) (UniProt P32270)
T2 sequence: T1 sequence with I351K, K358F

[3] = biological target: T3, Dda 1993 K358E K358E (Enterobacteria phage T4) (UniProt P32270)
T3 sequence: T1 sequence with I351K, K358E

[4] = biological target: T4, Dda 1993 354Q 354Q (Enterobacteria phage T4) (UniProt P32270)
T4 sequence: T1 sequence with I351K, L354Q

[5] = biological target: T5, Dda 1993 361I 361I (Enterobacteria phage T4) (UniProt P32270)
T5 sequence: T1 sequence with I351K, E361I

[6] = biological target: T6, Dda 1993 K358M K358M (Enterobacteria phage T4) (UniProt P32270)
T6 sequence: T1 sequence with I351K, K358M

barcoded 3.6 kb DNA analyte ligated to sequencing Y adaptor
activity (bps speed delta vs control) [1]: -9.76
activity (bps speed delta vs control) [2]: -10.9
activity (bps speed delta vs control) [3]: -7.28
activity (bps speed delta vs control) [4]: 0.09
activity (bps speed delta vs control) [5]: 21.6
activity (bps speed delta vs control) [6]: -11.8
